In assay [1] the target is T1, Anti-CD28 Fab (SEQ ID NOs: 696, 697).
T1 construct: In the phage ELISA the Fab was biotinylated and captured on neutravidin coated plates
The experiment in a line: phage ELISA; captured anti-CD28 Fab pre-incubated with CD28 antigen as competitor, anti-M13 HRP.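 Note: crude clonal phage supernatants added without washing after CD28 pre-incubation, bound phage detected with HRP anti-M13 antibody, reference wells got blocking buffer lacking CD28.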 In general terms: An ELISA detects its analyte on a solid surface through an enzyme-linked reagent.
T1 sequence (VH, as listed by the source, chain 1 of 2): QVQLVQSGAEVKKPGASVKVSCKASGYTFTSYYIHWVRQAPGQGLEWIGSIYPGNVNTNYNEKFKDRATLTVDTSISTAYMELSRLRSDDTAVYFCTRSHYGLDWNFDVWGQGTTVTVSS
T1 sequence (VL, as listed by the source, chain 2 of 2): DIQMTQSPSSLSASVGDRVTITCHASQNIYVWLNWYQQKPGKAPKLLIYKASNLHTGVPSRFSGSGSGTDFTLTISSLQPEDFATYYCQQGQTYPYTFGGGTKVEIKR

Assay [2] shares this target. As to the kind of experiment: phage ELISA; biotinylated anti-CD28 Fab on neutravidin plate, clonal phage supernatant, anti-M13 HRP.
Target sequence in this assay (VH, as listed by the source, chain 1 of 2): as the sequence (VH, as listed by the source, chain 1 of 2) above
Target sequence in this assay (VL, as listed by the source, chain 2 of 2): as the sequence (VL, as listed by the source, chain 2 of 2) above
Protocol: (§1) After panning, phage infected bacteria were plated out and colonies picked into 96 well blocks. Clonal phage was then amplified and separated from bacterial cells via centrifugation.
(§2) Clonal phage were harvested as crude supematants and screened via standard ELISAs. […] Prior to the addition of clonal phage, wells were incubated with blocking buffer and CD28 antigen or blocking buffer alone. Without washing or aspirating, clonal phage supematants were then added to the wells and incubated for a short time. Wells were then washed followed by detection of bound phage using a horse radish conjugated anti-M13 antibody. Clonal phage of interest were then sent for sequence analysis.
Assay [3] concerns the target T2, Anti-CD28 Fab (SEQ ID NOs: 696, 697).
T2 construct: In the phage ELISA the Fab was biotinylated and captured on neutravidin coated plates
The experiment in a line: phage ELISA; biotinylated anti-CD28 Fab on neutravidin plate, clonal phage supernatant, anti-M13 HRP detection.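 Note: crude supernatants of single phage clones picked after panning were screened for binding.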
T2 sequence (VH, as listed by the source, chain 1 of 2): as the sequence (VH, as listed by the source, chain 1 of 2) above
T2 sequence (VL, as listed by the source, chain 2 of 2): as the sequence (VL, as listed by the source, chain 2 of 2) above

Assay [4] has the same target. As to the kind of experiment: phage ELISA; plate-bound anti-CD28 Fab pre-incubated with CD28 antigen as competitor, anti-M13 HRP detection.
Target sequence in this assay (VH, as listed by the source, chain 1 of 2): as the sequence (VH, as listed by the source, chain 1 of 2) above
Target sequence in this assay (VL, as listed by the source, chain 2 of 2): as the sequence (VL, as listed by the source, chain 2 of 2) above
Protocol: as §1, §2
The target of assay [5] is Anti-CD28 Fab (SEQ ID NOs: 696, 697). As to the kind of experiment: phage binding ELISA; biotinylated anti-CD28 Fab on neutravidin plate, clonal phage supernatant, anti-M13 HRP.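 Note: crude clonal phage supernatants screened after wells were preincubated either with CD28 antigen in blocking buffer or with blocking buffer only, phage added without washing.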
Target sequence in this assay (VH, as listed by the source, chain 1 of 2): as the sequence (VH, as listed by the source, chain 1 of 2) above
Target sequence in this assay (VL, as listed by the source, chain 2 of 2): as the sequence (VL, as listed by the source, chain 2 of 2) above
Protocol: as §1, §2
Assay [6] has the same target. As to the kind of experiment: phage binding ELISA; captured anti-CD28 Fab pre-incubated with CD28 antigen as competitor, anti-M13 HRP.
Target sequence in this assay (VH, as listed by the source, chain 1 of 2): as the sequence (VH, as listed by the source, chain 1 of 2) above
Target sequence in this assay (VL, as listed by the source, chain 2 of 2): as the sequence (VL, as listed by the source, chain 2 of 2) above
Protocol: as §1, §2
Assay [7] deals with anti-CD28 Fab (SEQ ID NOs: 696, 697). As to the kind of experiment: phage binding ELISA; biotinylated Fab on neutravidin plate, clonal phage supernatant, anti-M13 HRP detection.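 Note: phage from clones picked after panning, added to wells pre-incubated with blocking buffer with or without CD28 antigen, then briefly incubated and washed before detection.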
For assay [8] the target is unchanged. The experiment in a line: phage binding ELISA; Fab on plate pre-incubated with CD28 antigen as competitor, anti-M13 HRP detection.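 Note: crude clonal phage supernatants screened by ELISA, with comparison wells pre-incubated in blocking buffer only, lacking CD28 antigen.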
Protocol: as §1, §2

Chain of anti-CD28 Fab (SEQ ID NOs: 696, 697) (VH, as listed by the source, chain 1 of 2): as the sequence (VH, as listed by the source, chain 1 of 2) above
Chain of anti-CD28 Fab (SEQ ID NOs: 696, 697) (VL, as listed by the source, chain 2 of 2): as the sequence (VL, as listed by the source, chain 2 of 2) above

B1: Phage-616 (peptide)
peptide: YCMGHLPQYMQKCL
notes: Clonal phage of the Peptide-87 library, tested as crude phage supernatant; not shown: pIII of the bacteriophage to which the peptide is fused
Consider B1, for which the “Anti-CD28 Fab signal in the presence of CD28 (phage binding ELISA)” value in assay [1] was found to be 0.11. The “Anti-CD28 Fab signal (phage binding ELISA)” value in assay [2] turned out to be 2.18.

B2: Phage-615 (peptide)
peptide: YCDGHLEEYKQKCL
notes: as for B1
In the case of B2, in assay [1], the “Anti-CD28 Fab signal in the presence of CD28 (phage binding ELISA)” value came out at 0.08. For the same molecule, the “Anti-CD28 Fab signal (phage binding ELISA)” value in assay [2] is 2.18.

For YCDGHRGEYLQKCL (Tested as clonal phage supernatant) [Phage-592], the “Phage binding ELISA, Anti-CD28 Fab signal” value in assay [3] is 2.22. Further, the “Phage binding ELISA, Anti-CD28 Fab signal in the presence of CD28” value in assay [4] worked out at 0.09.

Turning to YCEGHSPEYMYKCL [Phage-589], the “Anti-CD28 Fab (SEQ ID NOs: 696, 697) signal” value in assay [5] worked out at 2.23. Also, the “Anti-CD28 Fab signal in the presence of CD28” value in assay [6] is 0.1.

B3: Phage-610 (peptide)
peptide: YCDGHLPQYKAKCL
notes: as for B1
Turning to B3, the “Anti-CD28 Fab signal in the presence of CD28 (phage binding ELISA)” value in assay [1] came to 0.09. For the same molecule, in assay [2], the “Anti-CD28 Fab signal (phage binding ELISA)” value was 2.19.

On to YCEGHAAEYMTKCL (Tested as clonal phage supernatant) [Phage-594], for which the “Phage binding ELISA, Anti-CD28 Fab signal” value in assay [3] amounted to 2.22. Further, in assay [4], the “Phage binding ELISA, Anti-CD28 Fab signal in the presence of CD28” value came out at 0.08.

In the case of YCDGHIEEYRAKCL (Tested as clonal phage supernatant) [Phage-596], the “Phage binding ELISA, Anti-CD28 Fab signal” value in assay [3] is 2.21. For the same molecule, the “Phage binding ELISA, Anti-CD28 Fab signal in the presence of CD28” value in assay [4] was 0.07.

B4: Phage-612 (peptide)
peptide: YCDGHSIEYRWKCL
notes: as for B1
In the case of B4, in assay [1], the “Anti-CD28 Fab signal in the presence of CD28 (phage binding ELISA)” value was found to be 0.06. The “Anti-CD28 Fab signal (phage binding ELISA)” value in assay [2] worked out at 2.18.

B5: Phage-609 (peptide)
peptide: YCDGHLPEYIEKCL
notes: as for B1
Regarding B5, the “Anti-CD28 Fab signal in the presence of CD28 (phage binding ELISA)” value in assay [1] stood at 0.07. The “Anti-CD28 Fab signal (phage binding ELISA)” value in assay [2] was determined as 2.19.

In the case of YCDGHKAEYMDKCL (Tested as clonal phage supernatant) [Phage-600], the “Phage binding ELISA, Anti-CD28 Fab signal” value in assay [3] stood at 2.2. Also, the “Phage binding ELISA, Anti-CD28 Fab signal in the presence of CD28” value in assay [4] worked out at 0.07.

As for YCEGHLPQYMKKCL (Tested as clonal phage supernatant) [Phage-595], the “Phage binding ELISA, Anti-CD28 Fab signal” value in assay [3] stood at 2.22. Moreover, the “Phage binding ELISA, Anti-CD28 Fab signal in the presence of CD28” value in assay [4] amounted to 0.1.

B6: Phage-606 (peptide)
peptide: YCAGHLPEYFLKCL
notes: as for B1
With B6, the “Anti-CD28 Fab signal in the presence of CD28 (phage binding ELISA)” value in assay [1] turned out to be 0.08. In assay [2], the “Anti-CD28 Fab signal (phage binding ELISA)” value is 2.19.

As for YCDGHLPEYLPKCL (Tested as clonal phage supernatant) [Phage-603], in assay [3], the “Phage binding ELISA, Anti-CD28 Fab signal” value turned out to be 2.19. Besides, the “Phage binding ELISA, Anti-CD28 Fab signal in the presence of CD28” value in assay [4] was determined as 0.09.

For YCEGHLPMYMDKCL [Phage-591], the “Anti-CD28 Fab (SEQ ID NOs: 696, 697) signal” value in assay [5] was determined as 2.22. Besides, in assay [6], the “Anti-CD28 Fab signal in the presence of CD28” value was found to be 0.07.

YCEGHTVEYMAKCL (Tested as clonal phage supernatant) [Phage-599]: the “Phage binding ELISA, Anti-CD28 Fab signal” value in assay [3] is 2.2. In addition, the “Phage binding ELISA, Anti-CD28 Fab signal in the presence of CD28” value in assay [4] is 0.08.

B7: Phage-613 (peptide)
peptide: YCEGHAEEYMQKCL
notes: as for B1
For the molecule B7, the “Anti-CD28 Fab signal in the presence of CD28 (phage binding ELISA)” value in assay [1] is 0.06. Besides, the “Anti-CD28 Fab signal (phage binding ELISA)” value in assay [2] is 2.18.

B8: Phage-605 (peptide)
peptide: YCDGHLPEYLSKCL
notes: as for B1
For B8, in assay [1], the “Anti-CD28 Fab signal in the presence of CD28 (phage binding ELISA)” value was 0.07. In assay [2], the “Anti-CD28 Fab signal (phage binding ELISA)” value amounted to 2.19.

Turning to YCEGHSPQYMWKCL (Tested as clonal phage supernatant) [Phage-593], in assay [3], the “Phage binding ELISA, Anti-CD28 Fab signal” value was 2.22. The “Phage binding ELISA, Anti-CD28 Fab signal in the presence of CD28” value in assay [4] stood at 0.12.

Take YCDGHAPEYMLKCL (Tested as clonal phage supernatant) [Phage-601]: the “Phage binding ELISA, Anti-CD28 Fab signal” value in assay [3] worked out at 2.2. In addition, in assay [4], the “Phage binding ELISA, Anti-CD28 Fab signal in the presence of CD28” value worked out at 0.07.

In the case of YCEGHAPEYMLKCL (Tested as clonal phage supernatant) [Phage-597], in assay [3], the “Phage binding ELISA, Anti-CD28 Fab signal” value was determined as 2.21. For the same molecule, the “Phage binding ELISA, Anti-CD28 Fab signal in the presence of CD28” value in assay [4] came out at 0.07.

For the molecule YCDGHAPDYMLKCL (Tested as clonal phage supernatant) [Phage-602], in assay [3], the “Phage binding ELISA, Anti-CD28 Fab signal” value was 2.2. The “Phage binding ELISA, Anti-CD28 Fab signal in the presence of CD28” value in assay [4] was 0.09.

B9: Phage-608 (peptide)
peptide: YCDGHLPEYMHKCL
notes: as for B1
With B9, the “Anti-CD28 Fab signal in the presence of CD28 (phage binding ELISA)” value in assay [1] worked out at 0.09. The “Anti-CD28 Fab signal (phage binding ELISA)” value in assay [2] is 2.19.

As for YCDGHAPEYMEKCM (Tested as clonal phage supernatant) [Phage-598], the “Phage binding ELISA, Anti-CD28 Fab signal” value in assay [3] came out at 2.21. For the same molecule, the “Phage binding ELISA, Anti-CD28 Fab signal in the presence of CD28” value in assay [4] came to 0.07.

B10: Phage-611 (peptide)
peptide: YCDGHAVEYMAKCL
notes: as for B1
Take B10: in assay [1], the “Anti-CD28 Fab signal in the presence of CD28 (phage binding ELISA)” value turned out to be 0.1. Moreover, the “Anti-CD28 Fab signal (phage binding ELISA)” value in assay [2] turned out to be 2.18.

B11: Phage-617 (peptide)
peptide: YCDGHTQEYIAKCL
notes: as for B1
On to B11, for which the “Anti-CD28 Fab signal in the presence of CD28 (phage binding ELISA)” value in assay [1] is 0.06. The “Anti-CD28 Fab signal (phage binding ELISA)” value in assay [2] was determined as 2.17.

Regarding YCDGHTQEYMAKCL (tested as crude phage supernatant) [Phage-618], in assay [7], the “Anti-CD28 Fab (SEQ ID NOs: 696, 697) signal” value was found to be 2.17. Further, the “Anti-CD28 Fab signal in the presence of CD28” value in assay [8] came out at 0.07.

B12: Phage-614 (peptide)
peptide: YCDGHAPEYIYKCL
notes: as for B1
On to B12, for which the “Anti-CD28 Fab signal in the presence of CD28 (phage binding ELISA)” value in assay [1] came out at 0.06. The “Anti-CD28 Fab signal (phage binding ELISA)” value in assay [2] was 2.18.

Take YCEGHLPEYMQKCM [Phage-587]: the “Anti-CD28 Fab (SEQ ID NOs: 696, 697) signal” value in assay [5] turned out to be 2.23. Further, the “Anti-CD28 Fab signal in the presence of CD28” value in assay [6] was determined as 0.08.

With YCDGHSMEYMSKCL [Phage-590], the “Anti-CD28 Fab (SEQ ID NOs: 696, 697) signal” value in assay [5] came out at 2.22. Moreover, the “Anti-CD28 Fab signal in the presence of CD28” value in assay [6] stood at 0.09.

YCEGHLPVYMWKCL (tested as crude phage supernatant) [Phage-619]: the “Anti-CD28 Fab (SEQ ID NOs: 696, 697) signal” value in assay [7] was 2.17. In addition, the “Anti-CD28 Fab signal in the presence of CD28” value in assay [8] came out at 0.09.

B13: Phage-607 (peptide)
peptide: YCDGHSPLYIWKCL
notes: as for B1
As to B13, in assay [1], the “Anti-CD28 Fab signal in the presence of CD28 (phage binding ELISA)” value was 0.09. Besides, the “Anti-CD28 Fab signal (phage binding ELISA)” value in assay [2] was found to be 2.19.

On to YCDGHMPEYIAKCL (Tested as clonal phage supernatant) [Phage-604], for which the “Phage binding ELISA, Anti-CD28 Fab signal” value in assay [3] is 2.19. In addition, the “Phage binding ELISA, Anti-CD28 Fab signal in the presence of CD28” value in assay [4] was found to be 0.08.
